Measured values published in patent publication US20240024851A1.

B1: anti-AAV-VHH antibody VHH1 (VHH)
VHH: QVQLVESGGGLVQAGGSLRLSCAASGRTFSSYAMGWFRQAPGKEREIVASISWNGGSTDYADSVKGRFTISRDNAKNTVYLQMNSLKPEDTAVYYCAADSTNWVFYDYWGQGTQVTVSS

Tests used:
[1] = molecular target: adeno-associated virus type 2 (AAV2) particles (adeno-associated virus type 2) (UniProt P03135); assay: affinity column (beads), AAV2 crude liquid, 0.2 mL/min, qPCR
[2] = molecular target: adeno-associated virus type 2 (AAV2) particles (adeno-associated virus type 2) (UniProt P03135); assay: affinity column (beads), AAV2 crude liquid, retention time 10 sec, qPCR
[3] = molecular target: adeno-associated virus type 2 (AAV2) particles (adeno-associated virus type 2) (UniProt P03135); assay: affinity column (beads), AAV2 crude liquid, retention time 5 sec, qPCR
[4] = molecular target: adeno-associated virus type 2 (AAV2) particles (adeno-associated virus type 2) (UniProt P03135); assay: affinity column (beads), AAV2 pre-treatment liquid, 0.2 mL/min, qPCR
[5] = molecular target: adeno-associated virus type 1 (AAV1) particles (adeno-associated virus type 1); assay: batch adsorption of AAV1 pre-treatment liquid to discs (ligand on nonwoven fabric 1), acid elution, qPCR

Molecule | leaked AAV to FT [1] | ratio of leaked AAV to recovered AAV [1] | ratio of residual AAV to recovered AAV [1] | recovered AAV in elution step [1] | residual AAV in washing step [1] | leaked AAV to FT [2] | ratio of leaked AAV to recovered AAV [2] | ratio of residual AAV to recovered AAV [2] | recovered AAV in elution step [2] | residual AAV in washing step [2] | leaked AAV to FT [3] | ratio of leaked AAV to recovered AAV [3] | ratio of residual AAV to recovered AAV [3] | recovered AAV in elution step [3] | residual AAV in washing step [3] | ratio of residual AAV to recovered AAV [4] | recovered AAV in elution step [4] | residual AAV in washing step [4] | amount of the AAV1 adsorbed [5]
POROS CaptureSelect AAVX (ligand of the commercial affinity resin, Thermo Scientific) (VHH) | 5.97e+09 vg | 1% | 17% | 8.77e+11 vg | 1.49e+11 vg | 4.19e+10 vg | 5% | 17% | 8.66e+11 vg | 1.47e+11 vg | 1.38e+11 vg | 19% | 22% | 7.42e+11 vg | 1.67e+11 vg | 48.8% | 5.75e+11 vg | 2.8e+11 vg | –
B1 | – | – | – | – | – | – | – | – | – | – | – | – | – | – | – | – | – | – | 1.1e+13 vg/mL-column
